Target: CK2α with para-azidophenylalanine at Tyr239 coupled with DBCO-Sulfo-Cy5 (Homo sapiens) (UniProt P68400)
Experiment: MST; 0.1526 to 5,000 nM GST cleaved CK2β titrated to 30 nM Cy5-labelled CK2α; 50 mM Tris-HCl (pH 8), 500 mM NaCl, 500 μM CaCl2, 0.05% Tween 20, 0.5% (v/v) DMSO; 25 °C; Monolith NT.115

Substance	Kd [nM]
casein kinase II subunit beta (CK2β) NP_001311.3; p.Asp32His, GST cleaved (from UniProt P67870 1-215) (natural protein)	15.8
casein kinase II subunit beta (CK2β), wild type, GST cleaved (from UniProt P67870 1-215) (natural protein)	12.9

Source: article PMC9092267
